Key:
[1] = target: LvTIM-Cys47Ala (Litopenaeus vannamei)
[2] = target: triosephosphate isomerase from Litopenaeus vannamei (LvTIM), wild type (Litopenaeus vannamei); test: SEC

Substance | catalytic efficiency (kcat/Km) of LvTIM-Cys47Ala, similar to wild-type LvTIM [1] | stoichiometry N [2]
LvTIM-Cys47Ala (enzyme) | 2.33e+06 M⁻¹ s⁻¹ | 
triosephosphate isomerase from Litopenaeus vannamei (LvTIM), wild type (enzyme) |  | 2
